According to the DeepSol protein solubility set:

Test: soluble on expression in E. coli; label from the status in PepcDB or PDB records

| Sequence | soluble on expression in E. coli |
| --- | --- |
| MGSSHHHHHHGKTIFVIVPTNEEQVAFLEALAKQDELNFDWQNPPTEPGQPVVILIPSDMVEWFLEMLKAKGIPFTVYVEEGGSENLYFQGGGGGGSDGAIVPREGSPQSISEELERRRSEARNLELRVSRKEAELQRAKEEQELLKEMRTVNEMIIRKKERQLSEGVANGVKISPESLAELNALGDALRLENLKTVELQREADVTSHQMEEVERSLENTEKQLLEAKRSTGWDVDRNSARTETAMESAFKEKKRLLSSLTSEQRTLSELSERLKQHAEECQAKVDAAEGMDERFAEAEEQLRQANARYRELIEEVMSNERIQKKTERVLTVANTQDKYKCIRQLEGEKRALHNDLSKLRETNVSNSRSILSLEVRLRQLETRLEAVNGFLREVFAEVEDDEPMDNVPEGAVEVPLALFEELSAALELSRETVVQRDDQLDEHDCKIEQMERKVVILQNAIASRAVSAQVQARGRDTQQRSMYANHSRRRSQLRTERDQLAVENTVLRNRLALL | not soluble |
| MAHHHHHHMSLRLCVCTATANGEYYMSMFNKHLSSFFKTITLGSTVDDFKQDKDSKDSIILYVEGPVGHDAIKYLCDDYHLPKEQRRVLWIYSLTAGVDVYRLGELVKELQDIPFANARGCYSSVLAEHVMYSMLYFYRQTWRSLASRAEHKWDPFLMVELRGKKVGIIGYGDIGQASAKLLSAFGMEVTGVKRSASTKEVDEYGVRLVHGDAERERVLRESDFVVNILPGTEETKRFFNKELFSMMKPSAVYISIGRGITQNEDDLACALRDGVIRGASVDVFEREPLPAESPLWDISDDKLLLTAHSADRTANLVPDSVRRFIGLVNEYAKTKRLDTYLVDPVRGY | not soluble |
| MSLTLVTELTPPAASAPPFSDHPDHVIAAVTATIVDLPLRRPHFHATGTHATQSLVMVELVTSGGAVGWGEGGTPGGTAFWGGECVETIKLMIDHYLAPAVIGISVFDQERILAAMDRIAANNHFAKAAIDIAVHDAAARLIGISVSQMFGGTARSTVPVLWALAAAAYEADVADAIEQIEAGRHSVFKIKIGKGDAASETRRALETATTIHDAHPDARFVVDLNQAWDESTAMRWLAAFQERDFLFVEQPVPAWNVEGMIRLASRFEIPIMADEGLWDFHDAYELIRRGATDIYAVKIAKGGGLRRAFKAAAVAEAAGVPLYGGMALESSVGTAAGLQLFSALPNLPFGCELIGPRLLAEDLTVQPIAYRDREVVVPSGVGMGVEIDRDRVRSFTRRNKEGHHHHHH | soluble |
| MGSDKIHHHHHHMTKVKLNFNKPSNVFNRNIFEILTNYDNFTEVHYGGGSSGKSHGVIQKVVLKALQDWKYPRRILWLRKVQSTIKDSLFEDVKDCLINFGIWDMCLWNKTDNKVELPNGAVFLFKGLDNPEKIKSIKGISDIVMEEASEFTLNDYTQLTLRLRERKHVNKQIFLMFNPVSKLNWVYKYFFEHGEPMENVMIRQSSYRDNKFLDEMTRQNLELLANRNPAYYKIYALGEFATLDKMVFPKYEKRLINKDELRHLPSYFGLDFGYVNDPSAFIHSKIDVKKKKLYIIEEYVKQGMLNDEIANVIKQLGYAKEEITADSAEQKSIAELRNLGLKRILPTKKGKGSVVQGLQFLMQFEIIVDERCFKTIEEFDNYTWQKDKDTGEYTNEPVDTYNHCIDSLRYSVERFYRPVRKRTNVSSKVDTIKSLGL | not soluble |
| MRAFKAHLRGLSPYPYKKEEAPVKLDQNESPFDLPGALKEEALGRLRAIPWNRYPEIHAESLRKRLSALLDWPEEGIVLAPGSNLLILALSLAAEEVLDLRPSFPHYAHAAKVAGTPYRAVPLGEGFSLDLKALLAAFRGGVLFLPNPHAPTGALFPEEALRALAERAKEVGGLLVVDEAYREFAGTDFRFLARENPHVALLRTFSKAFSLGGVRAGYLLGSPEVAGVVREVLPPFVLPAHTGAVLEVVLENPGYVEKVVEEVVAQRERVYRELLAHPTWRPYPSRTNFLLVRTPDAEEAFRHLLSQGVLVRRQDRYPGLAGCLRVTVGRREEMDAFLRAAFGVAYA | soluble |
| MRFSNDHPFNQMRLKLTTELLLDLGSLKPEHIITPRIATDEELSLIHSYDYIQAIRRASHGILNLQEAKKYGLDGDDTLQFRRMHQHSARIVGGALNLADAIMDKSVKNGCHLGGGLHHSLPGRANGFCIYNDVAITIAYLIKHYNQRVLCIDTDAHHGDGTQWSFYTEDQALIYSIHETGKFLFPGSGHYTERGNEQGFGYTVNIPLEPYTEDSSYLEVFKQTIEPIIASFKPDIIVSVHGVDVHYLDPLTHMSCTLNTLYQIPYIIKSLADTYTNGKVMMFGGGGYNIWKVVPRAWSHVFLALIEAPPPLEHHHHHH | soluble |
| MIMKKEKTYSRAPLPFVGQKRMFVSEFKKILKHFDDKTIFVDLFGGSGLLSHITKRERPDAVVIYNDHDNYRERLENIDRTNTLLRDLRKIVGIYPRHQKITGKMREAFLERIRLEETTGFVDYLTLSTSLLFSGKYAQNMEELEGLYFYNKIRQSDYRCDGYLDGLEVVCYDYKELADTYGVFPGVVFLVDPPYMGTDISTYKMDWKLADYLDVLLVLKGH | not soluble |
| MVYSKTFRVEEKSITVSARGTIGVVFYRDFAYLPAVSLICFVPKEEFDIRFLFHALRAIKFKKQGSATGQLTVAQFKEYGIHVPSLKKQKEIAAILDPLYSFFTDLNEGLPAEIELRKKQLDYYQNFLFNWIQKQKELVEQASTN | soluble |
| MGSDKIHHHHHHMYKIGIDVGGTNTDAVILDENQQLIHSVKMPTSEDIETGITESLHRVLSETGIDRSKVTHAMLGTTQCTNAIVERKKLAKVGVLRLGYPATASVLPYTAWPEDMVGFLSGKYKLTGGGYEYDGQVLSEINEAEIRETLASWKGEVESVAVVGVFSSLKNDQELAVQKIIEEELGADIPVSISSSVGSVGLIERENATILNAALFKVIAATSDGFEKALEQEGIEHAEIYLCQNDGTLMSLNYARQFPILTIACGPTNSIRGASYLAGLKDAMVLDVGGTTSDIGVLTDGFPRESSLAVDVGGVRTNFRMPDIISIGLGGGSIVREKDGDITIGPDSVGYRISEEALVFGGKTMTTTDIAVRLGMAEIGNPELVAHIPTDFAEKAYKKIADMTEDAIDKMKTSSGSVSLVLVGGGSMIIPDEISGVAQIFRDKNGPVANAIGASISQISGQYEQIYIYSQIEREEALQDAEQKAREQATLAGAVTDSIEVVEVEEIPLAYHPGNATRLRVKVVGDLV | not soluble |
| GMTLAALCQGVLERLDPRQPGRQLVALSGAPGSGKSTLSNPLAAALSAQGLPAEVVPMDGFHLDNRLLEPRGLLPRKGAPETFDFEGFQRLCHALKHQERVIYPLFDRARDIAIAGAAEVGPECRVAIIEGNYLLFDAPGWRDLTAIWDVSIRLEVPMADLEARLVQRWLDHGLNHDAAVARAQGNDLANARAIEAARLPADLTWPQA | soluble |
| VALAATRAFYWIEAQSPDAATAFAQRVFDLYFSDRLDTASPEAVSRLGPEVGLEPEALLAGIADPALKETVRKIGEDAVARGIFGSPFFLVDDEPFWGWDRMEMMAEWIRTGGW | not soluble |
| MEKKITQEGLARMIDKGMGTLLALPEIEKKKKSGDLPDNFKMEDGFGVYRVEVGGNEYLCVTNILCNKCERVNGKVKRCEAHKKKRKARKVRKDGDVADDTSDREKLGGLRHVNDEEEEEDKIEGAVTPDFVMTPGIGGAIILVPVDAKNNDRAGPPAKGLNHVKGILVRGAGNIPQFIPNDRLTKAHKLRFDNYIEGELNLVNGKEVFVPNNLGAAKMDEKNAQDVAKAAVADKVDQKVVDAIGKDMVVAVQVDVADNGMPVMKVLEGKPKDKETPVGIIVKANDQVQFVQIVGRELGGGKDAKMMPCTIPENGKVGDVIADVYVNKEGKAVSAKPGDAPAGAPVIGQVIVGQNDQLVFVAKGENKDDAVKKGAKMTPEMKEKLEQAQAKVQAAVTGQSADHIQEQVNRIGVPEAAATSAANGGNNAGGGGSSAEVRSVGFGAQQFGGSQFARPIPAGGGGGGSGGYGAGGGGSGGYGAGGAGGARNSASNGSYGSSANEVKSVGFGAQQYGGSVFAKPSGTGGGYVSAGSSARKSGESGAGGGGAGGGKAGGAKNSASYGSSANEVKSVGFGAQQYGGSVFIRK | not soluble |
